# Source: the RNAGym collection of RNA variant scans (doi:10.1093/molbev/msab373)
# B1: Azoarcus group I ribozyme (parent)
# chain: GUGCCUUGCGCCGGGAAACCACGCAAGGGAUGGUGUCAAAUUCGGCGAAACCUAAGCGCCCGCCCGGGCGUAUGGCAACGCCGAGCCAAGCUUCGGCGCCUGCGCCGAUGAAGGUGUAGAGACUAGACGGCACCCACCUAAGGCAAACGCUAUGGUGAAGGCAUAGUCCAGGGAGUGGCGAAAGUCACACAAACCGG
# Variants of: B1
# Assay: reverse-splicing fitness (ratio to wild type); higher = more active; in vitro selection; Mg2+ level not given
# How it was run: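 An in vitro group I ribozyme library with randomized positions was T7-transcribed and gel-purified. In triplicate, 10 pmol RNA in EPPS pH 7.5 was reacted with 50 pmoles of a 30-nt RNA substrate for 1 h at 37 °C across several added MgCl2 levels (1–48 mM), then stopped with EDTA. Products were reverse transcribed from a substrate-complementary primer, PCR-amplified and sequenced (HiSeq 4000). Fitness is a variant's read proportion after selection over that before, normalised to wild type.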
row,Variant,reverse-splicing fitness
1,C82U A111G A120U A145U C150U C169U,0.00372
2,C82U A111G A120U A145C C169A U176A,0.00176
3,C82U A111G A120U A145C C169A U176C,0.00194
4,C82U A111G A120U A145C C169A U176G,0.00179
5,C82U A111G A120U A145U C169G U176A,0.00205
6,C82U A111G A120U A145U C169G U176G,0.00135
7,C82U A111G A120U A145U C169G U176C,0.00255
8,C82U A111G A145G C150G,0.0407
9,C82U A111G A145G C150A,0.0568
10,C82U A111G A120U A145U U176A,0.00945
11,C82U A111G A120U A145U U176G,0.004
12,C82U A111G A120U A145U U176C,0.0196
13,C82U A111G A145C C150G C169U U176A,0.00744
14,C82U A111G A145C C150G C169U U176C,0.00873
15,C82U A111G A145C C150G C169U U176G,0.00478
16,C82U A111G A120U A145C C150G U176A,0.0026
17,C82U A111G A120U A145C C150G U176C,0.00405
18,C82U A111G A120U A145C C150G U176G,0.00159
19,C82U A111G A145C C150A C169A U176A,0.0104
20,C82U A111G A145C C150A C169A U176G,0.00539
21,C82U A111G A145C C150A C169A U176C,0.00627

row,Variant,reverse-splicing fitness
1,C82U A111G A120U A145C C150U C169G,0.00245
2,C82U A111G A120U A145C C150U C169A,0.00187
3,C82U A111G A120U A145C C150U C169U,0.00249
4,C82U A111G A120U A145C U176A,0.00851
5,C82U A111G A120U A145C U176C,0.0117
6,C82U A111G A120U A145C U176G,0.00339
7,C82U A111G A120U A145U C150G C169U,0.00235
8,C82U A111G A120U A145U C150G C169A,0.00272
9,C82U A111G A120U A145U C150G C169G,0.00266
10,C82U A111G A145C C150A C169U U176A,0.0133
11,C82U A111G A145C C150A C169U U176C,0.00672
12,C82U A111G A145C C150A C169U U176G,0.00504
13,C82U A111G A120U C150A C169A U176C,0.00313
14,C82U A111G A120U C150A C169A U176G,0.00269
15,C82U A111G A120U C150A C169A U176A,0.00374
16,C82U A111G A120U A145U C169A U176A,0.00208
17,C82U A111G A120U A145U C169A U176C,0.0022
18,C82U A111G A120U A145U C169A U176G,0.00175
19,C82U A111G A145G C150G U176C,0.0206
20,C82U A111G A145G C150G U176G,0.00618
21,C82U A111G A145G C150G U176A,0.00967

row,Variant,reverse-splicing fitness
1,C82U A111G A145C C150G C169A U176G,0.00511
2,C82U A111G A145C C150G C169A U176A,0.00801
3,C82U A111G A145C C150G C169A U176C,0.00614
4,C82U A111G A145C C150U C169G U176G,0.00565
5,C82U A111G A145C C150U C169G U176C,0.00977
6,C82U A111G A145C C150U C169G U176A,0.0186
7,C82U A111G A120U A145G C150U C169A,0.0056
8,C82U A111G A120U A145G C150U C169G,0.00615
9,C82U A111G A120U A145G C150U C169U,0.00469
10,C82U A111G A145G C150A C169G U176G,0.00543
11,C82U A111G A145G C150A C169G U176C,0.0236
12,C82U A111G A145G C150A C169G U176A,0.0194
13,C82U A111G A120U A145U C150U C169G U176A,0.0026
14,C82U A111G A120U A145U C150U C169G U176G,0.00172
15,C82U A111G A120U A145U C150U C169G U176C,0.00294
16,C82U A111G A120U C150G C169G U176C,0.00318
17,C82U A111G A120U C150G C169G U176G,0.0022
18,C82U A111G A120U C150G C169G U176A,0.00513
19,C82U A111G A120U A145G C150G C169G U176G,0.00255
20,C82U A111G A120U A145G C150G C169G U176A,0.0073
21,C82U A111G A120U A145G C150G C169G U176C,0.00401

row,Variant,reverse-splicing fitness
1,C82U A111G A120U A145G C169U,0.00406
2,C82U A111G A120U A145G C169A,0.00248
3,C82U A111G A120U A145G C169G,0.00348
4,C82U A111G A145C C150A,0.019
5,C82U A111G A145C C150G,0.0393
6,C82U A111G A145C C150U,0.091
7,C82U A111G A145C C169U,0.00982
8,C82U A111G A145C C169A,0.00618
9,C82U A111G A145C C169G,0.0078
10,C82U A111G A120U A145C C150U C169U U176G,0.00188
11,C82U A111G A120U A145C C150U C169U U176A,0.00264
12,C82U A111G A120U A145C C150U C169U U176C,0.00222
13,C82U A111G A120U A145G C150G C169U U176G,0.00292
14,C82U A111G A120U A145G C150G C169U U176A,0.00458
15,C82U A111G A120U A145G C150G C169U U176C,0.00581
16,C82U A111G A120U A145U C150G C169U U176A,0.00271
17,C82U A111G A120U A145U C150G C169U U176G,0.00213
18,C82U A111G A120U A145U C150G C169U U176C,0.00227
19,C82U A111G A120U C150U C169U U176C,0.00375
20,C82U A111G A120U C150U C169U U176A,0.00404
21,C82U A111G A120U C150U C169U U176G,0.0019
